Measurements as given in the DeepSol protein solubility set.

Assay: soluble on expression in E. coli; label from the status in PepcDB or PDB records

Soluble on expression in E. coli, not soluble:
MGSDKIHHHHHHMLMPDAPSNTESLPTSVDLAGEYQASGVAEILDELDRELVGLKPVKQRIRETAALLLVERARRAMGLSHEPPSLHMSFTGNPGTGKTTVALRMANLLHRLGYIRKGHLVSVTRDDLVGQYIGHTAPKTKEILKKAMGGVLFIDEAYYLYRPDNERDYGQEAIEILLQVMENNRDDLVVILAGYADRMDRFFESNPGFRSRIAHHIDFPDYDNGELLSIAESMLSRQGYRFDSKASAVMSDYIARRRRQPHFANARSIRNALDRARLRQANRLFEESAGPVDAEQLSTITARDIAASRVFATVEPSHTETSP
MGSDKIHHHHHHMKLILSVESVRFPLTGIGRYTYELASRLQHAEQISDLRLFAGSRFLPELLKPSDQSDAVHGLKRFVQKNALAVEAYRRLMPLLRKRALRGHEDFIYHSTNFYLPPFAGPRVATFHDLSPFTWAHCHTPQIARYLQKELKLTLERADALITVSHHTRKELADYFGWPLERIHAVPLASSPQFHPRTPQALRETLARHGLELGGYSLFVGTIEPRKNIETLLNAYGRLPLALRQRWPLILSGYHGWRSEAIHSRIAQAQQEGWARYLGFVASEDLPLLFAGARLFTFPSHYEGFGLPVLEAMSSGVPVVCSNSSSLPEVAGSAALMCAPDDVEGLTGLLHQGLEDEAWRSAAVQRGLLHAGGFSWERCAQGTVEVYKSVKER
MGSDKIHHHHHHMSCIDCAVKNCNKMDKTYPDFCLTTHMDEEVLNEAMECYNEDENRKVTIAAAEVEYENYCKHTRVEEIMDFAKKINAKKIGIATCVGLLKESRILADILRRHGFEVYGVGCKAGTQKKTSVGIPECCEGVGVNMCNPILQAKLLNKAKTDLNVVVGLCVGHDSLFYKYSEALTTTAVTKDRVLGHNPVAALYTADSYYSKLKKSEEE
MGSDKIHHHHHHMKPSRFNLVINESDGTLLFNTLSQALLWIDRKNTNKVLKTLEDPSSTELSKTEVEKLKRGMFLLDDNFDELEFLKFRFNTYRYSDRFLRYTIVLTHSCNFDCVYCYQKVLHISSGSYISEKVQSNFLLDVERKLEYQKPNLLSVTFYGGEPLLLEETVVNLSSKLKRLCEKYGVKYDSFIVTNGYLLTEKMVDDLQKAGIKALDITLDGTEVYHDRYRKARNGAPTFSSIFENIFRAVNKGLFVQIRVNVSRENIEDVKKLIDRIAEKKLRVEFNFQPIEIVEGNPTGFQDTALNTEEFAEIETKLWWYIREKIPEYPFEYFKKPRFARCDAMCKNSFVVDVDGRVYKCWGELGMENCSGFLKETGVEFTGSYLKWLTYDPLEDEECRRCLVLPFCMGGCAFNRVVYRTLKSSKVKKPHTCIPLRYNLNEFIKIVADYKRRSAVHGISQRSSGG
MGSDKIHHHHHHDDDNDYYRYALPNALVTVKPVADNSFFMQLDDSTTLLPVNMKNSPYGEKEVRALVNFDPVNESSGEYDKAVHINWIDSILTKPIAGDLGDKNDEVYGTDPVDMINDWVTIAEDGYLTLRFRTMWGNRSQAHFVNLLMSKDAENPYEVEFRHNAFGDVYGEPADGLVAFNLDSLPDTEGKTVKLKLKWKSFNGEKTAEFDYCTRKSTPANSAAITAGRSVLRLK
PAGHADDAMHSYFTFVAPDRGLAKVAAAQAAALRPFLAGTPLADLPLLSSVSPLKAGGRAGPDHYTDVPAGPLSMRHVADLHMFPNELRALVLTGADLREWLEMAAGVFLSPAPAGACDMLLDTSVPGHNFDSLYGLTYEIDPRAPPRYDIGGRLIADENRRIGSLCHNGTPVDDRQKFVVALNNYRANGGGHFLMLDRGEPVPLPSLRIQSALHDYLSGRLPADPLEQAPHPWRLAPL
MGSDKIHHHHHHMSFDLALFSSKLRRCREQFEKSLVEVTTATGIPENILAALENGERQPTGDEVLIFADYYLCDYQFFISNERVASFDQTETLFRRYGEEFSKEDRLAVQEFLFLCECEDFLLKLVQTHIYKPFSFIKRGNYYIGHGKEAAKALRKHLGYASNAVRMDVYEDFRSLGFHIFRRQLGNSNISGLFIKHPTAGKCILVNYSEDIYRQRFTAAHESAHGILDDEQEFVISLKTDKKNLVEVRANNFASDYLMPPEFLQKIPDSQTWTPEKAIEWANKLKVSTEALANALKSANFISENVEIQIKAVRVPRDLKVDPELPESLSFGSRQRREKLLKRGLSNFYVGLCFDVYEQGFISAGRVAEMLLVSKYELTEIASIYGRTIRYGD
MGSDKIHHHHHHSPTQELNSAKIISTLTAHYGERAGLRAKAWFQVLSKAEHVDEQEKLKMVNQFFNLFRFVEDKTLWGDSNYWATPMEFIGVNGGDCEDFSIAKYFTLLQLGVSEDKLRITMVKATTMNQYHMVLAYYPTPSSIPLVLDNLDREIKPATQRNDLLPVYSFNGKQLWLNKEKGRGVLAGSSSRLKKWNDLKHRLGVDRLRQPKLKME
MGSDKIHHHHHHMINKHVISEKIKKAIVEANIKINPEVEEIIERYEGPFSDIIKENYRVSKEEKLPLCQDTGIVEFFVFIGHEVKLEEPIEETLNRAVGEVYSEYPFRYSVVSDPLFERINTGTNTPAIVHIFQVKGKSLEIRFLVKGGGSENLTVLRMMTPTSDVEKVKEFVIEHIKEHGAKACPPLHVGIGIGGTADKALLLSKLALTKSFKERNKDPKYAGLEKELEKELNFLGIGFQGLGKGITVYSVHIEHFPTHIATLPVAVSVDCYLCRRGKVTFED
LAAQMEQTDIELLWKQLEQTPGAQVTVSLEERTVTCEGNVYPFFVDDYTRWRLMEGLDDVGLTLRKEAEIAAFEARRPSFKPVTQ
MSLRFGNRKLRQQQALQYELEKNKAELEEYREELVSHFARSAELLDTMAHDYRQLYQHMAKSSSSLLPEMSAESNPFRNRLAESEASNDQAPVQMPRDYSEGASGLLRSGAKRDEGHHHHHH
MGSDKIHHHHHHMSLAQFQSVECADCPIRHRAVCARCDADELEALDAIKFYRSYEAGQTVVWSGDQMNFVGSVVSGIATLTQTMEDGRTQMVGLLLPSDFVGRPGREGSAYDVVATTDVIMCCFRKKPFEDLMVRTPHIAHRLLEMTLDELDAAREWMLVLGRKTAREKIASLLSIIARRDASLAVDPSNGAVSFDLKLTREAMADYLGLTLETVSRQISALKKAGVIQLEGKRHVTVPDMHRLIEEAGDDSDGGVLG
FLRDAPKHLNPDGEIRLIISDLAEHLHLRPSDFLDKAFAQAGLRVADMMKTKPKHKKAANPSDPLAFARTRETTFLYRLKKA
MAHHHHHHMKVDSLLSPRSAFSTENDPCGSVESVANDVASASDVVVAYPQPGKRWSRIIAGPELVGMSLKENQIKDGKALCIYGHCFDDGIIDYITNEVLPEARVLTKVEIAETKFSSAGMKILLRALWTNSPCEQMEELLLHDVHLHFEETLQLKEVIMKNRKCLRRLVLQRCHMDDSAAEPIVQAISHCEQLREVNFLDNNIVHALAIPTEREDIFPPTLQIFDISGNRIEPKHFTGLGNALRRCMANLHEVYLARCCVTESGLKTLLCGGLYNSQVLSVLNVSAGRLLHTAGKVLSSVISECPNLQRVYMQDNLLDVEGAAQIALVIPYAKKLTVLGMGRCHLGGRGARYIAEAVKQSASLRELDLSGNGVTDEDVHRICACNDDASFRLSYLDLSDNPLTEDCRCSLETLLEHQKDNSCIVVVRGTGLAVVSSYMEYHNKPTPG

Soluble on expression in E. coli, soluble:
MMTGLTLLSCSTENDEFKKELPPTEQPSEPTGALLERFSIDQLPAKTIYALGESIDLTGLKVTGEYDDGKQRSVNVAPKQISGFSSSVPVDKQEVTITIEGKQKSFTIQVAPVRVENGVLTEVLKGYDEIILPNSVKSIPKNAFNGSKINKVTLNEGLKSIGDMAFFNSTIQEVIFPSTLEQLEENIFYYCYHLKKADLSRTKLTKLPASTFVYAGVEEVLLPATLTEIDAQAFLKTSQLKTIEIPENVRTIGLEAFRESSITTVKLPNGVTNIAQRAFYYCPELTEVTTYGTVFNDDPEAMIHPYCLEGCPQLTRFEIPQSIRILGQGLLGGNRKVTQLTIPANVTQINFSAFNNTGIKEVKVEGITPPQVFEKIWYGFPDDITVIRVPAESVEKYKTAAGWQDYTNKIQASLEHHHHHH
MSLCTPLTSYSGFQAIEAKPAEMKVGEDSKSTLMEKLGSPSAVSTFDNNTWYYISQTTDRVAFYMPRVIKRDVVAIKFNPADEKVASVDTYTLQDGKVIAYNGRETPTRGREMTILEQLLGNVGRGGMLPQDDTAPGQRPGDREGHHHHHH
MNILQNENLIIESSSFGAELTKIFSKKYDKNILWDGNKKYWGRQSPILFPIVGKLFDNETIIEENLYSMTQHGFARDMDFEIVDKGDTFVTYKLTDNESTLKKYPYSFELIINYTLNDNSIEVEWIVKNTDSKDIFFSIGGHPAFNLPFYKQNDFSKHYLEFKSKNDVEKINLNGSFTDDIIPIGKLKNLQLNPEVFKNDALIYTNIDEVSICNNDGSKYVTISMEDFPLVGIWTPYYSETNSTAPFLCIEPWYGLADSINSNKIYKDKKFINKLSKGKVFTASYNINIHLEHHHHHH
MSLIFSKIRGNFQDLKDGKISVKQGLITKSDAIELFNIKNWKDYLKLFSIASEVRDFFKNEIEITSTVHVTNICSVTPKCAYCGFAAGTSSEGYVEPFRSNDEQIKSSAAAVENSGIKRVSCSSGHGYSGKEVIRALKAVKSASNLEVLVNAGADITEDCISELKKYNIDTICCNLETTNKSVFNKVKPGENLDDRISVCKMVKKHGIELSSGLLIGIGESYEDRAEHLFFLKELDVEEIPVMGFNPYKDTPMEQCPKCSAIEQAKTIAIARLLFPNIRITSPTPTMGPELAQFALLGGASNIATVIPDNHPMNIKGVGNPKTGNLNDVICMMKELGLTPKLNEGHHHHHH
GPGSMRYFVVAHEFQAEEDVELSVFKGEILCATEGVAQDGWIKVEATTDARRRGFVPMSYLREISAAEASTSMSAPASSAPPLTGESTSPMRTPQRAGGESSARAALANTTVSTSLDLGNCSGVVAKGFSPSLQPMRSPETTAVHAAPASSSIHLTPAQQAAGPVSRHLLENPNAVVDAFMKNEVYFNQLMQRRASALAQMQSGLEEAMTEVAACKDRSAVLTRKLHDLDGVVERERQRWMDRVEEEKVHVSRSIPYSAPLAVPVSSGTTPLRSPIIGPHSGVGRSVLDDDSPRQLRA
MALNDFHVSEPYTLGIELEMQVINPPGYDLSQDSSTLIDAVKPQLTAGEIKHDITESMLEMATGVCRDIDQAAAQLSAMQHVILQAASEHHLGICGGGTHPFQKWQRQEVCDNERYQRTLENFGYLIQQATVFGQHVHVGCANGDDAIYLLHGLSHFVPHFIALSAASPYMQGADTRFACARLNIFSAFPDNGPMPWVSNWQEFAGLFRRLSYTTMIDSIKDLHWDIRPSPAFGTVEVRVMDTPLTLDHAINMAGLIQATAHWLLTERPFKPQEQDYLLYKFNRFQACRYGLEGVLTDAYTGDRRRLADDTLRLLDNVTPSARKLGADSAIDALRLQVKKGGNEAQYMREFIADGGSLIGLVQKHCEIWAGQ
MSLNMFWFLPTHGDGHYLGTEEGSRPVDHGYLQQIAQAADRLGYTGVLIPTGRSCEDAWLVAASMIPVTQRLKFLVALRPSVTSPTVAARQAATLDRLSNGRALFNLVTGSDPQELAGDGVFLDHSERYEASAEFTQVWRRLLQRETVDFNGKHIHVRGAKLLFPAIQQPYPPLYFGGSSDVAQELAAEQVDLYLTWGEPPELVKEKIEQVRAKAAAHGRKIRFGIRLHVIVRETNDEAWQAAERLISHLDDETIAKAQAAFARTDSVGQQRMAALHNGKRDNLEISPNLWAGVGLVRGGAGTALVGDGPTVAARINEYAALGIDSFVLSGYPHLEEAYRVGELLFPLLDVAIPEIPQPQPLNPQGEAVANDFIPRKVAQS
